Experimental data taken from patent publication US5912325A, “Biologically active porcine somatotropin polypeptides and methods of using the same” (American Cyanamid Company, priority 1994, dated 1999).

Tested on: hypox rats
Assay: Biological assay for growth-promoting activity: net weight gain of hypophysectomized rats
Assay type: in vivo, rat
Conditions: 5 ug/day pST alone, day 0 to 4 and day 7 to 10, versus untreated rats, FIG. 4
Description: Hypox rats are injected subcutaneously with pST (5 ug/day) with or without antibody (2 mg/day) for 5 consecutive days and the net weight gain is recorded. Immune antibodies are prepared from two pigs that had been immunized with pST (54-95) and the control antibody is prepared from a pooled sera of non-immunized pigs. *,p<0.05; **,p<0.01.
In a study similar to that shown in FIG. 3, except antibody is injected at a dose of 0.5 mg/day and for a longer period of time. *,p<0.05; **,p<0.01; ***,p<0.001.
Hypophysectomized female Sprague-Dawley rats, 21 days of age and weighing 50-64 g, are obtained from Taconic Farm, Germantown, N.Y. and used to assay for Growth Hormone (GH). Female crossbred swine (Duroc x Yorkshire x Hampshire), 3-5 months of age, weighing 30-50 kg, are obtained from the breeding colony of American Cyanamid Co., Princeton, N.J. and used for the production of antibodies.
Hypophysectomized rats are randomly allocated to groups of eight. Antibody mixed with 5 ug pST at room temperature for 1 hour is administered subcutaneously in the neck region of experimental rats. All animals are treated daily for various periods of time and their growth is recorded as net weight gain. […]
The growth enhancing effect of these antibodies are evaluated in hypox rats. […] Net weight gains are recorded. […]

B1: pST: single chain polypeptide of 191 amino acids, growth hormone native to swine (protein, UniProt P01248 27-216, looked up)
Somatotropin: FPAMPLSSLFANAVLRAQHLHQLAADTYKEFERAYIPEGQRYSIQNAQAAFCFSETIPAPTGKDEAQQRSDVELLRFSLLLIQSWLGPVQFLSRVFTNSLVFGTSDRVYEKLKDLEEGIQALMRELEDGSPRAGQILKQTYDKFDTNLRSDDALLKNYGLLSCFKKDLHKAETYLRVMKCRRFVESSCAF
For B1, the “growth (net weight gain)” value was “marked growth as compared to untreated rats”.
